Test results taken from US12202866B2, “Therapeutic nanoconjugates and uses thereof” (UNIVERSITAT AUTÒNOMA DE BARCELONA (UAB), priority 2017, dated 2025).
Marks after values point to notes of the source that are not given here.

Assays:
[1] = Biodistribution and toxicity in normal organs, bone marrow and circulating blood cells; type: in vivo, mouse
Description: At necropsy, bone marrow was extracted and registered ex vivo in the IVIS® 200-Spectrum equipment. Mouse blood was collected by punction in the maxillary plexus. The erythrocytes, leucocytes and platelets were isolated by the Ficoll density gradient method using the standard protocol. Further, pellets were obtained by centrifugation of the isolated cell extracts at 600 g, 10 min and then recorded to measure fluorescence using IVIS® 200-Spectrum.
In addition, two independent observers evaluated the possible histopathological alterations observed in H&E stained non-tumor tissue samples, searching for signs of toxicity.

[2] = tested on: CXCR4^+ HeLa human cervical carcinoma cell line; experiment: Internalization in CXCR4+ HeLa cells (flow cytometry, AMD3100 competition); type: cell-based; conditions: 1 hour exposure, 1 μM
Description: To assess specificity for CXCR4 receptor mediated internalization, competition studies incubating CXCR4^+ HeLa cells with the CXCR4 antagonist AMD3100 (octahydrochloride hydrate, Sigma-Aldrich) were performed in a 1:10 (Protein:antagonist) molar ratio for 1 h before exposure to the nanoconjugate, as previously described for the T22-GFP-H6.
Nuclei were labeled with Hoechst 33342 (Life Technologies) and plasma membranes CellMask™ Deep Red (Life Technologies).

[3] = tested on: CXCR4^+ SW1417 CRC metastases; experiment: Regression of established metastasis protocol, orthotopic CXCR4+ SW1417 CRC model; type: in vivo, Swiss nude mice
Description: Swiss nude mice were anesthetized with ketamine and xylazine, exteriorizing their cecum by a laparotomy. 2×106 CXCR4^+ SW1417-luci CRC cells (expressing luciferase, to allow ex vivo bioluminescent identification of metastatic foci in affected organs at the end of therapy) were suspended in […] of modified Eagle's medium, and loaded into a sterile micropipette. The cell suspension was slowly injected, under a binocular lens, with an approximate 30° angle and its tip introduced 5 mm into the cecal wall. Afterward, a slight pressure was applied with a cotton stick at approximately 2 mm from the injection point in the direction of the pipette axis. The pipette was pulled out and the area around the injection cleaned with 3% iodine. After injection, the gut was returned to the abdominal cavity and closed with surgical staples.
The orthotopic and metastatic CRC model developed in Swiss nude mice was employed to perform experiments of metastasis regression. […] The experiment was finished when the first animal of the buffer-treated-group had to be euthanized. See below the studied parameters to evaluate the antimetastatic effect.
At necropsy, the number and size of visible metastases in the organs where dissemination is expected in colorectal cancer (lymph nodes, liver, lung and peritoneum) were recorded for each mouse in all compared groups. Also the number of metastatic foci that emitted bioluminiscence (derived from the SW1417-luci CRC cells) were counted ex vivo in the target organs for metastasis, using the IVIS® 200-Spectrum (Perkin-Elmer). Samples for histopathological and immunohistochemical analyses were collected and processed. Two independent observers analyzed H&E stained samples to count the number and measure the size of all observed metastatic foci in three (metastasis prevention experiment) or six (regression of metastasis experiment) sections of each organ in each mouse. The images were taken and the measurements were performed with an Olympus microscope with the CellD Olympus software (v3.3). […] The obtained results were used to study a possible correlation between CXCR4^+ CCF and antimetastatic effect at the different sites.
In order to analyze differences between control and experimental groups of affected mice in metastatic rates at the different organs, Fisher's exact test was used. The Mann-Whitney test was used to compare number and size of metastatic foci in the affected organs among groups. All quantitative values were expressed as mean±SE and the statistical tests were performed using SPSS version 11.0 (IBM, New York, USA). Differences among groups was considered significant at a p<0.05.

CXCR4^+ HeLa cells = experiment: MTT cytotoxicity in CXCR4+ HeLa cells; type: cell-based, human; conditions: compared to free oligo-FdU
Description: Afterwards, a graphic displaying the linearized T22-GFP-H6-FdU dose-response trend line representation to compare cell viability for both compounds was constructed. Reduction of cell viability was also determined by optical microscope images of HeLa cells exposed to 1 μM […] for 48 h, as compared to T22-GFP-H6 or free FdU.

[4] = tested on: subcutaneous CXCR4^+ SW1417 CRC tumor; experiment: Tumor uptake and tumor cell internalization in subcutaneous CXCR4+ SW1417 CRC model; parameters: tumor uptake measured by fluorescence emission: dose or concentration left out as unconfirmed
Description: SC model was used to assess tumor uptake and nanoconjugate internalization and in vivo competition studies using co-administration of the CXCR4 antagonist AMD3100.
Two hours, 5 h and 24 h after the administration, the mouse was euthanized to resect the tumor and register ex vivo the intensity of the green fluorescence emitted by the nanoconjugated that biodistributed to tumor tissue using the IVIS® 200-Spectrum (Perkin Elmer, MA, USA). Following, tumor tissue samples were taken, processed and performed immunohistochemistry (IHC) to determine the presence or absence of the corresponding nanoconjugate into cytosol of tumor cells using an anti-GFP antibody (1:300; Santa-Cruz Biotechnology, CA, USA). […] Apoptosis was assessed determining nuclear condensation with Hoechst staining of tumor tissue sections and counting the number of condensed or defragmented nuclei in five high-power magnification fields in different sections for each tumor using the Olympus DP73 digital camera and the CellD Imaging 3.3 programme (Olympus, Tokyo, Japan).

[5] = Nanoparticle size by dynamic light scattering; type: physicochemical
Description: The volume and size distribution of the nanoparticles was determined by dynamic light scattering at 633 nm (Zetasizer Nano ZS, Malvern Instruments Limited, Malvern, Worcestershire, UK). Nanoconjugate size was also measured using purified samples, diluted to 0.2 mg/mL and contrasted by evaporation of 1 nm platinum layer in carbon-coated grids, before being visualized in a Hitachi H-7000 transmission electron microscope (TEM), as described33.

[6] = tested on: CXCR4^+ cancer cells in SC SW1417 CRC tumor; experiment: CXCR4+ cancer cell fraction in tumor tissue along time after single dose (anti-CXCR4 IHC); type: in vivo, mouse
Description: The SC SW1417 mouse model was used to determine the capacity of the nanoconjugate to induce DNA damage and apoptosis in tumor tissue, as well as the kinetics of CXCR4 expression in the membrane of tumor cells after treatment, regarding the fraction of CXCR4 expressing tumor cells and their intensity, since CXCR4^+ are the target cells for the nanoconjugate. […] The mice had been treated with equimolecular dosages of T22-GFP-H6, free oligo-FdU or Buffer, in which also were determined the levels of CXCR4 expression in tumor tissue at the different time points.

SW1417 CRC cells = experiment: MTT cytotoxicity in SW1417 CRC cells; type: cell-based, human; conditions: compared to free oligo-FdU, 72 h, 1.0-1,000 nM

## T22-GFP-H6-FdU: nanoconjugate of T22-GFP-H6 protein nanoparticle covalently bound via maleimide linker to thiol-functionalized pentameric floxuridine oligonucleotide (oligo-FdU)
[1]; 5 h after doses in the 10-100 μg range
  fluorescence emission in erythrocytes, leucocytes or platelets: Lack of fluorescence emission
[1]; 5 h after single injections, 10-100 μg range
  fluorescence emission in spleen or bone marrow: Lack of fluorescence emission
[1]; 5 h after treatment
  level of DSBs in liver (anti-gH2AX IHC): undetectable
[1]; 24 h post-administration
  apoptosis or histological alteration in bone marrow or liver: not detected
[1]; regression and prevention of metastases experiments
  mouse body weight: lack of mouse body weight loss
[2]
  internalization in HeLa cells: CXCR4-dependent nanoconjugate internalization
[3]; Regression protocol, 20 μg (or equimolecular) q3d x10 i.v., 6 histology sections, mean + SE
  LN foci, mean foci number per mouse: 0.4 ± 0.1 ^h,i
[3]; Regression protocol, 6 histology sections, mean + SE
  Lung foci, mean foci number per mouse: 0.7 ± 0.4 ^k,l,m
[3]; compared to free oligo-FdU
  regression of established lung metastasis: more potent than free oligo-FdU
[3]; regression experiment, compared to buffer treated animals
  primary tumor growth by in vivo bioluminescence emission: significantly inhibited tumor growth
CXCR4^+ HeLa cells
  cytotoxicity in HeLa cells: higher cytotoxicity than free oligo-FdU
[4]; 5 h after injection, i.v.
  tumor uptake measured by fluorescence emission: selective tumor uptake
[4]; single i.v. dose
  internalization into CXCR4^+ tumor cell cytosol by anti-GFP immunohistochemistry: internalized
[5]; Example 2, unit not given
  size determined by dynamic light scattering: 14.6+0.14
[5]; Example 3
  size (DLS): 14.66+0.14 nm
[6]; 24 h after single dose
  CXCR4^+ CCF remaining in tumor tissue: reduced
[6]; 48 h after single dose
  CXCR4^+ CCF remaining in tumor tissue: undetectable
SW1417 CRC cells
  cytotoxicity measured by cell viability or phase-contrast microscopy: significantly higher cytotoxicity than free oligo-FdU
